Laboratory results: patent publication US20200283525A1 (published 2020)
Positions count from the first letter of the chain named. Values belong to the binder of their own block, whether it stands above or below them.

What was measured:
mouse CTLA-4 protein = mouse CTLA-4 protein (mouse, UniProt P09793 36-161); test: ELISA
Mouse CTLA4 = Mouse CTLA4 (mouse, UniProt P09793 36-161); test: ELISA

B2: 9D9 DMAb mod #3 (antibody)
chain 1: EVQLQQSGPVLVKPGASVKMSCKASGYTFTDYYMNWVKQSHGKSLEWIGVINPYNGDTSYNQKFKGKATLTVDKSSSTAYMELNSLTSEDSAVYYCARYYGSWFAYWGQGTLITVSTAKTTPPSVYPLAPGCGDTTGSSVTLGCLVKGYFPESVTVTWNSGSLSSSVHTFPALLQSGLYTMSSSVTVPSSTWPSQTVTCSVAHPASSTTVDKKLEPSGPISTINPCPPCKECHKCPAPNLEGGPSVFIFPPNIKDVLMISLTPKVTCVVVDVSEDDPDVQISWFVNNVEVHTAQTQTHREDYNSTIRVVSTLPIQHQDWMSGKEFKCKVNNKDLPSPIERTISKIKGLVRAPQVYILPPPAEQLSRKDVSLTCLVVGFNPGDISVEWTSNGHTEENYKDTAPVLDSDGSYFIYSKLNMKTSKWEKTDSFSCNVRHEGLKNYYLKKTISRSPGK
chain 2: DIVMTQTTLSLPVSLGDQASISCRSSQSIVHSNGNTYLEWYLQKPGQSPKLLIYKVSNRFSGVPDRFSGSGSGTDFTLKISRVEAEDLGVYYCFQGSHVPYTFGGGTKLEIKRADAAPTVSIFPPSSEQLTSGGASVVCFLNNFYPKDINVKWKIDGSERQNGVLNSWTDQDSKDSTYSMSSTLTLTKDEYERHNSYTCEATHKTSTSPIVKSFNRNEC
IC50 (mouse CTLA-4 protein): 0.0361 µg/mL

B4: 9D9 DMAb mod #2 (antibody)
chain 1: B2 chain 1 with V2A, Q3K, Q6E, I113V, T117S
chain 2: B2 chain 2
IC50 (mouse CTLA-4 protein): 0.0409 µg/mL

Second part, the binder after the results:

IC50 (mouse CTLA-4 protein): 0.0434 µg/mL
B1: 9D9 DMAb original (antibody)
chain 1: B2 chain 1 with V2A, Q3K, Q6E
chain 2: B2 chain 2

IC50 (Mouse CTLA4): 0.0442 µg/mL
B3: 9D9 standard (antibody)
chain 1: B2 chain 1 with V2A, Q3K, Q6E
chain 2: B2 chain 2

IC50 (mouse CTLA-4 protein): 0.0367 µg/mL
B5: 9D9 DMAb mod #4 (antibody)
chain 1: B2 chain 1 with I113V, T117S
chain 2: B2 chain 2
